The target of this assay is T1, cyclo[RGDfK] cell adhesive peptide, surface-bound, light-activated from c[RGD(DMNPB)fK].
T1 chain: RGDFK
Kind of assay: QCM-D; cells (3 × 10^5 cells/ml) injected over a gold-coated quartz crystal carrying a c[RGD(DMNPB)fK]-terminated PEG-thiol SAM, sedimented in stopped flow, peptide activated in situ by LED (360 nm, 1.35 mW cm^-2, 30 s); Δf1 = frequency drop within the first minute after irradiation; 37°C, PBS; also with 10 μM cytochalasin D or 10 μM anti-αVβ3 antibody. The note with it: remark: other sources report otherwise.

B1: integrin αVβ3 on human umbilical vein endothelial cells (HUVEC), P06756 31-1048; P05106 27-788 (receptor)
chain 1: FNLDVDSPAEYSGPEGSYFGFAVDFFVPSASSRMFLLVGAPKANTTQPGIVEGGQVLKCDWSSTRRCQPIEFDATGNRDYAKDDPLEFKSHQWFGASVRSKQDKILACAPLYHWRTEMKQEREPVGTCFLQDGTKTVEYAPCRSQDIDADGQGFCQGGFSIDFTKADRVLLGGPGSFYWQGQLISDQVAEIVSKYDPNVYSIKYNNQLATRTAQAIFDDSYLGYSVAVGDFNGDGIDDFVSGVPRAARTLGMVYIYDGKNMSSLYNFTGEQMAAYFGFSVAATDINGDDYADVFIGAPLFMDRGSDGKLQEVGQVSVSLQRASGDFQTTKLNGFEVFARFGSAIAPLGDLDQDGFNDIAIAAPYGGEDKKGIVYIFNGRSTGLNAVPSQILEGQWAARSMPPSFGYSMKGATDIDKNGYPDLIVGAFGVDRAILYRARPVITVNAGLEVYPSILNQDNKTCSLPGTALKVSCFNVRFCLKADGKGVLPRKLNFQVELLLDKLKQKGAIRRALFLYSRSPSHSKNMTISRGGLMQCEELIAYLRDESEFRDKLTPITIFMEYRLDYRTAADTTGLQPILNQFTPANISRQAHILLDCGEDNVCKPKLEVSVDSDQKKIYIGDDNPLTLIVKAQNQGEGAYEAELIVSIPLQADFIGVVRNNEALARLSCAFKTENQTRQVVCDLGNPMKAGTQLLAGLRFSVHQQSEMDTSVKFDLQIQSSNLFDKVSPVVSHKVDLAVLAAVEIRGVSSPDHVFLPIPNWEHKENPETEEDVGPVVQHIYELRNNGPSSFSKAMLHLQWPYKYNNNTLLYILHYDIDGPMNCTSDMEINPLRIKISSLQTTEKNDTVAGQGERDHLITKRDLALSEGDIHTLGCGVAQCLKIVCQVGRLDRGKSAILYVKSLLWTETFMNKENQNHSYSLKSSASFNVIEFPYKNLPIEDITNSTLVTTNVTWGIQPAPMPVPVWVIILAVLAGLLLLAVLVFVMYRMGFFKRVRPPQEEQEREQLQPHENGEGNSET
chain 2: GPNICTTRGVSSCQQCLAVSPMCAWCSDEALPLGSPRCDLKENLLKDNCAPESIEFPVSEARVLEDRPLSDKGSGDSSQVTQVSPQRIALRLRPDDSKNFSIQVRQVEDYPVDIYYLMDLSYSMKDDLWSIQNLGTKLATQMRKLTSNLRIGFGAFVDKPVSPYMYISPPEALENPCYDMKTTCLPMFGYKHVLTLTDQVTRFNEEVKKQSVSRNRDAPEGGFDAIMQATVCDEKIGWRNDASHLLVFTTDAKTHIALDGRLAGIVQPNDGQCHVGSDNHYSASTTMDYPSLGLMTEKLSQKNINLIFAVTENVVNLYQNYSELIPGTTVGVLSMDSSNVLQLIVDAYGKIRSKVELEVRDLPEELSLSFNATCLNNEVIPGLKSCMGLKIGDTVSFSIEAKVRGCPQEKEKSFTIKPVGFKDSLIVQVTFDCDCACQAQAEPNSHRCNNGNGTFECGVCRCGPGWLGSQCECSEEDYRPSQQDECSPREGQPVCSQRGECLCGQCVCHSSDFGKITGKYCECDDFSCVRYKGEMCSGHGQCSCGDCLCDSDWTGYYCNCTTRTDTCMSSNGLLCSGRGKCECGSCVCIQPGSYGDTCEKCPTCPDACTFKKECVECKKFDRGALHDENTCNRYCRDEIESVKELKDTGKDAVNCTYKNEDDCVVRFQYYEDSSGKSILYVVEEPECPKGPDILVVLLSVMGAILLIGLAALLIWKLLITIHDRKEFAKFEEERARAKWDTANNPLYKEATSTFTNITYRGT
modifications: here or on the partner: cyclic peptide (cyclo); f = D-phenylalanine
B1: the Δf1 is 0.966 Hz.

B2: integrin αVβ3 on stable OV-MZ-6 cell transfectants overexpressing integrin αVβ3, P06756 31-1048; P05106 27-788 (receptor)
chain 1: B1 chain 1
chain 2: B1 chain 2
modifications: here or on the partner: cyclic peptide (cyclo); f = D-phenylalanine
The molecule B2 had a Δf1 of 0.913 Hz.
